Biological target: SRPK1 (UniProt Q96SB4)
Test: rapid quench single-turnover, fast-phase amplitude
Conditions: reference: 0P complex (no pre-phosphorylation)

Row | other: fast-phase amplitude αp at 1 µM SRPK1 | Substance
1 | weaker; reference 1.0 ± 0.18 | SRSF1 (aka ASF/SF2) (from UniProt Q07955) 8P complex (8.3 phosphates in RS1)
2 | weaker; reference 1.0 ± 0.18 | SRSF1 (aka ASF/SF2) (from UniProt Q07955) 6P complex (6.3 phosphates in RS1)
3 | same; reference 1.0 ± 0.18 | SRSF1 (aka ASF/SF2) (from UniProt Q07955) 4P complex (4 phosphates in RS1)
4 | same; reference 1.0 ± 0.18 | SRSF1 (aka ASF/SF2) (from UniProt Q07955) 1P complex (1.2 phosphates in RS1)

Source: article PMC3153611
